Experimental findings from patent US20060115475A1 (published 2006) are described below.

In experiment [1] the target is T1, soluble human TLR3 extracellular domain (human, UniProt O15455 24-703).
T1 construct: also called hTLR3 extracellular domain; extracellular domain of human TLR3
The experiment in a line: ELISA, TLR3 binding assay. Background: In an ELISA, binding on a coated surface is turned into a signal by an enzyme label.

The target in experiment [2] is T1, soluble human TLR3 extracellular domain. The experiment in a line: ELISA, TLR3 binding assay as in Example 20.
The target is the same in experiment [3]. The experiment in a line: ELISA, coated soluble hTLR3 extracellular domain, anti-mouse IgG-HRP.
For experiment [4], the target named is T2, Human hexa-histidine-TLR3 (human, UniProt O15455 24-703, limits assumed).
T2 construct: Captured by anti-His antibody on a CM5 chip; also called TLR3 (captured on the chip surface); not shown: hexa-histidine tag
The experiment in a line: Biacore 3000, hexa-histidine-TLR3 captured on anti-His antibody, mAb in solution, 25 C, 1:1 model.

Experiment [5] deals with T1, soluble human TLR3 extracellular domain. The experiment in a line: Biacore 2000, mAb captured on protein A, TLR3 in solution, 25 C, 1:1 model; mAb capture (mAb on protein A chip, TLR3 in solution). Background: In SPR one partner is held on a chip, and binding of the other changes the refractive index at the surface.
Experimental: Measurement of binding affinity by Biacore was performed by mAb capture and TLR3 capture techniques. MAb capture analysis was performed at 25° C. using a Biacore 2000 biosensor equipped with a CM5 chip with surfaces modified with protein A (6,000 RU) at 25° C. by standard amine coupling. Antibody was diluted to 30 nM and captured for one minute on different protein A surfaces. TLR3 was injected at 0, 0.1, 0.3, 1.0, 3.0, and 9.0 nM and associations and dissociations were monitored for 5 minutes. The protein A modified surfaces were regenerated using two 6-second pulses 100 mM phosphoric acid. Available binding data sets were fit to a 1:1 interaction model (CLAMP™). The rate constants and their ratio (KD=kd/kₐ) and the error of fit carried over the estimate of the apparent equilibrium constants were calculated.

B1: human-adapted C1068 variant mAb HBV6 (Vκ CDR1 H30S in the HV1/LV1 background) (antibody, V domains shown)
VH: QVQLVQSGAEVKKPGASVKVSCKASGYTFTTYWIHWVRQAPGQRLEWMGEINPNNGRINYNEKFKTRVTITRDTSASTAYMELSSLRSEDTAVYYCARVGVMITTFPYWGQGTLVTVSS
VL: DIQMTQSPSSLSASVGDRVTITCRASGNISNYLAWYQQKPGKAPKLLIYNAKTLADGVPSRFSGSGSGTDFTLTISSLQPEDFATYYCQHFWSTPFTFGQGTKLEIK
notes: Made in the HV1/LV1 background; not shown: human kappa light chain constant region
With B1, the EC50 in experiment [1] was greater than 1 µg/mL; in experiment [2], 1.22 µg/mL.

B2: murine anti-hTLR3 antagonist mAb 1068 (antibody, mouse IgG1, V domains shown)
VH: QVQLQQPGAELVQPGTSVRLSCKASGYIFTTYWIHWVKQRPGQGLEWIGEINPNNGRINYNEKFKTKATLTVDKSSSTAYMQLSSLTSEDSAVYYCTRVGVMITTFPYWGQGTLVTVSA
VL: DIQMTQSPASLSASVGETVTITCRASGNIHNYLAWYQQKQGKSPQLLVYNAKTLADGVPSRFSGSESGTQYSLKINSLQPEDFGSYYCQHFWSTPFTFGSGTKLELK
notes: also called C1068; mAb C1068
B2: it took 8 ng/mL to reach a half-maximal effect in experiment [3] (EC50). Moreover, the equilibrium dissociation constant (Kd) in experiment [4] was 0.316 nM; in experiment [5], 1.2 nM.

The term EC50 denotes the concentration at which the effect is half-maximal. A higher EC50 goes with lower potency in that assay. The term Kd denotes the free concentration of one partner at which half of the binding sites on the other are occupied at equilibrium, for simple one-to-one binding. Lower therefore signals tighter binding.
